Test results taken from patent US20250333467A1 (TECTONIC OPERATING, published 2025).
Substitutions are numbered along the chain they refer to.

Biological target: T1, human RXFP1 (human, UniProt Q9HBX9 1-757)
T1 sequence (looked up): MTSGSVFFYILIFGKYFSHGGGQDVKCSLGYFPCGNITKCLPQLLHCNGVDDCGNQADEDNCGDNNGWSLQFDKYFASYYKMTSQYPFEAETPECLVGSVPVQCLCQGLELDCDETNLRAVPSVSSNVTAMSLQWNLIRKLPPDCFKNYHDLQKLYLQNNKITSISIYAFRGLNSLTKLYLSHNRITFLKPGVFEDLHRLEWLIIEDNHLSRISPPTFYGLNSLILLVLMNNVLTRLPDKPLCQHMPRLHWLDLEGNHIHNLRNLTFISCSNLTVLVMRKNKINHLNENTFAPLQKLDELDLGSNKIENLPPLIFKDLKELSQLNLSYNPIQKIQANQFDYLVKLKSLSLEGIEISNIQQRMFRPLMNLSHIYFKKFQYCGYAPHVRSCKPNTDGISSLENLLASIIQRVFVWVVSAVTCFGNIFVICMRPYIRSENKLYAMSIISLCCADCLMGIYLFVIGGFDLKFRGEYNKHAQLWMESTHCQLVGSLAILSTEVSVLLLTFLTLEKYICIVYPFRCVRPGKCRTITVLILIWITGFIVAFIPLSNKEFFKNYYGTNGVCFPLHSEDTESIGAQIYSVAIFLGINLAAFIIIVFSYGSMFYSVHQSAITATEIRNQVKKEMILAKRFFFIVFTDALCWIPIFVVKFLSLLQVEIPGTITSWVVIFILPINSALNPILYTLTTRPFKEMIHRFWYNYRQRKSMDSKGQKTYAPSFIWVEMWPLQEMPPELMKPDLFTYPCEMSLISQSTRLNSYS
Assay: cell-based or functional assay

B1: SEQ ID NO: 362 (Fc fusion)
chain: DKTHTCPPCPAPEAAGGPSVFLFPPKPKDTLMISRTPEVTCVVVDVSHEDPEVKFNWYVDGVEVHNAKTKPREEQYNSTYRVVSVLTVLHQDWLNGKEYKCKVSNKALAAPIEKTISKAKGQPREPQVYTLPPSRDELTKNQVSLTCLVKGFYPSDIAVEWESNGQPENNYKTTPPVLDSDGSFFLYSKLTVDKSRWQQGNVFSCSVLHEALHSHYTQKSLSLSPGKGGSDSWKEEVIKLCGRELVRAQIAICGKSTGGGEGGGEGGGEGGGQLYSALANKCCHVGCTKRSLARFC
Q: For B1, which “Potency (cAMP, transient hRXFP1 in HEK293)” value (shortened to “Potency”) is on record?
A: 12.3 nM

B2: SEQ ID NO: 307 (Fc fusion)
chain: B1 chain with K234Q
Q: B2 was tested. Which “Potency” value did it give?
A: 15.8 nM

B3: SEQ ID NO: 364 (Fc fusion)
chain: B1 chain with K234M
Q: With B3 as the binder, how does the “Potency” value read?
A: 16 nM

B4: SEQ ID NO: 361 (Fc fusion)
chain: DKTHTCPPCPAPEAAGGPSVFLFPPKPKDTLMISRTPEVTCVVVDVSHEDPEVKFNWYVDGVEVHNAKTKPREEQYNSTYRVVSVLTVLHQDWLNGKEYKCKVSNKALAAPIEKTISKAKGQPREPQVYTLPPSRDELTKNQVSLTCLVKGFYPSDIAVEWESNGQPENNYKTTPPVLDSDGSFFLYSKLTVDKSRWQQGNVFSCSVLHEALHSHYTQKSLSLSPGKGGSDSWKEEVIKLCGRELVRAQIAICGKSTGGGEGGGEGGGEGRQLYSALANKCCHVGCTKRSLARFC
Q: B4 was tested. Which “Potency” value did it give?
A: 2.5 nM

B5: SEQ ID NO: 319 (Fc fusion)
chain: B4 chain with K234Q, G262E, E265G, G266E, G267E, E269G
Q: How did the “Potency” value turn out when B5 was run?
A: 5.8 nM

B6: SEQ ID NO: 363 (Fc fusion)
chain: B4 chain with K234M
Q: B6 was tested. Which “Potency” value did it give?
A: 2.9 nM

B7: SEQ ID NO: 304 (Fc fusion)
chain: B4 chain with K234Q
Q: For B7, which “Potency” value is on record?
A: 2.5 nM

B8: SEQ ID NO: 365 (Fc fusion)
chain: B4 chain with K234M, G260E, E261G, G264E, R271G
Q: How did the “Potency” value turn out when B8 was run?
A: 60.3 nM

B9: SEQ ID NO: 321 (Fc fusion)
chain: B4 chain with K234Q, G262E, E265G, G266E, G267E, E269G, R293Q
Q: Which “Potency” value does the source give for B9 here?
A: 10.2 nM

B10: SEQ ID NO: 326 (Fc fusion)
chain: B4 chain with K234Q, G260E, E261G, G262E, G267E, E269G, G270S, R293Q
Q: With B10 as the binder, how does the “Potency” value read?
A: 18.9 nM

B11: SEQ ID NO: 366 (Fc fusion)
chain: B4 chain with K234Q, G260E, E261G, G264E, R271G
Q: Which “Potency” value does the source give for B11 here?
A: 62.8 nM

B12: SEQ ID NO: 368 (Fc fusion)
chain: DKTHTCPPCPAPEAAGGPSVFLFPPKPKDTLMISRTPEVTCVVVDVSHEDPEVKFNWYVDGVEVHNAKTKPREEQYNSTYRVVSVLTVLHQDWLNGKEYKCKVSNKALAAPIEKTISKAKGQPREPQVYTLPPSRDELTKNQVSLTCLVKGFYPSDIAVEWESNGQPENNYKTTPPVLDSDGSFFLYSKLTVDKSRWQQGNVFSCSVLHEALHSHYTQKSLSLSPGGGSDSWQEEVIKLCGRELVRAQIAICGKSTGGEGGGEEGGGEGGQLYSALANKCCHVGCTKRSLARFC
Q: B12 was tested. Which “Potency” value did it give?
A: 101 nM

B13: SEQ ID NO: 327 (Fc fusion)
chain: B12 chain with G261E, E263G, G266E, E268G, G269S, G270R
Q: Which “Potency” value does the source give for B13 here?
A: 9.3 nM

B14: SEQ ID NO: 328 (Fc fusion)
chain: B12 chain with G261E, E263G, G266E, E268G, G269S, G270R, R292Q
Q: B14 was tested. Which “Potency” value did it give?
A: 41.9 nM

B15: SEQ ID NO: 325 (Fc fusion)
chain: B12 chain with E259G, G260E, G261E, E263G, E264G, G265E, G266E, E268G, G270R, R292Q
Q: How did the “Potency” value turn out when B15 was run?
A: 23.4 nM

B16: SEQ ID NO: 315 (Fc fusion)
chain: B12 chain with E259G, G260E, E263G, G270R
Q: Which “Potency” value does the source give for B16 here?
A: 3.3 nM

B17: SEQ ID NO: 369 (Fc fusion)
chain: DKTHTCPPCPAPEAAGGPSVFLFPPKPKDTLMISRTPEVTCVVVDVSHEDPEVKFNWYVDGVEVHNAKTKPREEQYNSTYRVVSVLTVLHQDWLNGKEYKCKVSNKALAAPIEKTISKAKGQPREPQVYTLPPSRDELTKNQVSLTCLVKGFYPSDIAVEWESNGQPENNYKTTPPVLDSDGSFFLYSKLTVDKSRWQQGNVFSCSVLHEALHSHYTQKSLSLSPGKGGSDSWKEEVIKLCGRELVRAQIAICGKSTASDAAGANANAGARQLYSALANKCCHVGCTKRSLAQFC
Q: For B17, which “Potency” value is on record?
A: 0.5 nM

B18: SEQ ID NO: 84 (Fc fusion)
chain: B17 chain with K234Q, N265D
Q: Which “Potency” value does the source give for B18 here?
A: 1.9 nM

B19: SEQ ID NO: 370 (Fc fusion)
chain: B17 chain with Q293E
Q: B19 was tested. Which “Potency” value did it give?
A: 1.8 nM

B20: SEQ ID NO: 89 (Fc fusion)
chain: B17 chain with K234Q, N265D, N267Q
Q: How did the “Potency” value turn out when B20 was run?
A: 2.5 nM

B21: SEQ ID NO: 88 (Fc fusion)
chain: B17 chain with K234Q, N265Q, N267D
Q: For B21, which “Potency” value is on record?
A: 1.4 nM

B22: SEQ ID NO: 85 (Fc fusion)
chain: B17 chain with K234Q, N267D
Q: With B22 as the binder, how does the “Potency” value read?
A: 2 nM
